{
  "source": "paper PMC6513753",
  "about": "(Nature chemical biology, 2018)",
  "target": "the molecule itself",
  "assay": "crystal structure",
  "data": [
    {"protein": "nepetalactol-related short-chain dehydrogenase/reductase 3 (NEPS3) from Nepeta mussinii (enzyme) MANNSVMMKKKLEGKVAIVTGGASGIGEATARLFVKYGARAVVIADIQSELGRSVAESIGKERCSFVQCDVADEEQVKSMIEWTATTYGGLDVMFSNAGVLNSAAQTVKDLDLPLFDKVMRVNTRGAAVCVKQAARKMVELGRGGSIICNAGSSAVRGAHGVTDYVMSKHAVIGLVRSASMQLGAHSIRVNSVSPMAVATPLTRNQGISTPDDVQKFLMPFISLKGVPPTAEQVAEAAAFLGSDEAAFVTGHDLPVDGGVLCMPFLLGSA", "values": [
      {"measurement": "stoichiometry N", "result": 4}
    ]}
  ]
}
